Tested on: VIRP1 (Arabidopsis thaliana)
Experiment: EMSA

Substance | binding signal (% of WT shifted)
HSVd WT | 100
Q-satRNA WT | 100
PSTVd WT | 100

Reference: publication PMC9516175
